The values below are quoted from earlier work in publication PMC4859893.

The target of this data set is EGFR (Homo sapiens) (UniProt P00533).

The Kd is the free concentration of one partner at which half of the binding sites on the other are occupied at equilibrium, for simple one-to-one binding. As for EGF (from UniProt P01133), the Kd was 2 nM.
